Common to all, as to experiment: EMSA
In general terms: Mobility shift assays separate free from complexed probe on a gel.

In data set [1] the test system is TilS A244T (Burkholderia cenocepacia HI2424). The conditions noted are these: unmodified in vitro transcript; EMSA: 3.5 nM 32P-tRNA, 220 nM-39.0 µM TilS, 100 mM Tris-HCl pH 7.8, 5 mM DTT, 10 mM MgCl2, 10 mM KCl, 10% glycerol, 37 C, 30 min; native 10% PAGE.
Data set [2] has as its system TilS N274Y (Burkholderia cenocepacia HI2424). The conditions noted are these: unmodified in vitro transcript; EMSA: 3.5 nM 32P-tRNA, 220 nM-39.0 µM TilS, 100 mM Tris-HCl pH 7.8, 5 mM DTT, 10 mM MgCl2, 10 mM KCl, 10% glycerol, 37 C, 30 min; native 10% PAGE.
The test system of data set [3] is TilS P421L (Burkholderia cenocepacia HI2424). The conditions noted are these: unmodified in vitro transcript; EMSA: 3.5 nM 32P-tRNA, 220 nM-39.0 µM TilS, 100 mM Tris-HCl pH 7.8, 5 mM DTT, 10 mM MgCl2, 10 mM KCl, 10% glycerol, 37 C, 30 min; native 10% PAGE.
Data set [4] relates to TilS N445K (Burkholderia cenocepacia HI2424). The conditions noted are these: unmodified in vitro transcript; EMSA: 3.5 nM 32P-tRNA, 220 nM-39.0 µM TilS, 100 mM Tris-HCl pH 7.8, 5 mM DTT, 10 mM MgCl2, 10 mM KCl, 10% glycerol, 37 C, 30 min; native 10% PAGE.
Data set [5] concerns TilS WT (Burkholderia cenocepacia HI2424). The conditions noted are these: 10 mM Mg2+; unmodified in vitro transcript; EMSA: 3.5 nM 32P-tRNA, 220 nM-39.0 µM TilS, 100 mM Tris-HCl pH 7.8, 5 mM DTT, 10 mM MgCl2, 10 mM KCl, 10% glycerol, 37 C, 30 min; native 10% PAGE.

In general, Kd refers to a measure of binding affinity in units of concentration. Higher therefore signals lower affinity.

For the substance tRNAIle2 (CAU), the Kd in data set [1] was determined as 4.6 µM; in data set [2] it was 3.3 µM; in data set [3] it was 4.5 µM; in data set [4], 3.1 µM; in data set [5] it was 2.6 µM.

Values taken from PMC10128029.
